Measured values reported in article PMC9556784.

Experiments:
[1] = tested on: PilJ soluble domain (Clostridioides difficile R20291?); assay: EMSA; details: 25C: 10 ng DNA in 10 ul, 10 mM Tris-HCl pH 8.5, 50 mM NaCl, 1 mg/ml BSA, 30 min, 1.5% agarose; 4C: 500 ng DNA in 10 ul, 20 mM Tris-HCl pH 8.3, 100 mM NaCl …
[2] = tested on: PilW soluble domain (Clostridioides difficile R20291?); assay: EMSA; details: 25C: 10 ng DNA in 10 ul, 10 mM Tris-HCl pH 8.5, 50 mM NaCl, 1 mg/ml BSA, 30 min, 1.5% agarose; 4C: 500 ng DNA in 10 ul, 20 mM Tris-HCl pH 8.3, 100 mM NaCl …

How did the Kd [1] turn out when plasmid DNA (25C EMSA) was run?
The Kd was 2.2 µM.

What about the Kd [2] of the same substance?
The Kd was 14.5 µM.
